From US20250115677A1, “Anti-CEA Antibody Drug Conjugates and Methods of Use” (BeiGene Switzerland GmbH, priority 2022, published 2025)
Residue numbers refer to the chain shown, from its start. In names and notes the source's numbering stands.

T1: huCEA surface protein (LOVO cells) (Homo sapiens, UniProt P06731)
T1 construct: host or cells: LOVO
T1 sequence (P06731 35-676): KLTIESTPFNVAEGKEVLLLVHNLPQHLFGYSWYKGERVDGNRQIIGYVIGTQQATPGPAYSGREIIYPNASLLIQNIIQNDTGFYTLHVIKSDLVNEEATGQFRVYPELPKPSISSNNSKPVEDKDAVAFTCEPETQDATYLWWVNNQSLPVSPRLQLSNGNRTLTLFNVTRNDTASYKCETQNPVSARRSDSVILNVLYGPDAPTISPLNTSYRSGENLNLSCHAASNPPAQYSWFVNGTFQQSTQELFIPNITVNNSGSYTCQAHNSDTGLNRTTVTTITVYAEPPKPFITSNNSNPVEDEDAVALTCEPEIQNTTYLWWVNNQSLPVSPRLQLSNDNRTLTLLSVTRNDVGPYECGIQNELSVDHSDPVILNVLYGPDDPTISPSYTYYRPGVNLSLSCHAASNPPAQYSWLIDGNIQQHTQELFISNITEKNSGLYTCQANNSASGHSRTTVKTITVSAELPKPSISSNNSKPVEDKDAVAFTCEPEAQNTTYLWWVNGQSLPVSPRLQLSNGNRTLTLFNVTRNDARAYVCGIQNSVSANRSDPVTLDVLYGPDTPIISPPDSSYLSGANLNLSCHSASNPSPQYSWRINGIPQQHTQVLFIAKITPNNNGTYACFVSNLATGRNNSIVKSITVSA

T2: CHIM (Homo sapiens, UniProt P06731, A174T/A211G/A239V/A261S/A267P/C12H/D173N/E253A/E283V/F203L/F272R/F277P/F63I/H123Q/H61N/H9C/I100T/I112V/I113T/I13V/I230T/I80V/INS244IISP/K155N/K214E/L18V/L245P/L62R/N182G/N204S/N246D/N288K/P266S/P287A/Q16K/Q78L/R139H/R17E/R198M/R224N/R250L/R77S/S228P/S280H/T171V/T206K/T210A/T217I/T247S/T276I/V221A/V273I/V291P/V55A/W11L)
T2 construct: CEACAM6 N-terminal part (fusion partner); 6xHis (C); made in house; host or cells: HEK293-based mammalian cell expression system
T2 sequence (P06731 with tags, fused parts or gaps H9C/W11L/C12H/I13V/Q16K/R17E/L18V/V55A/H61N/L62R/F63I/R77S/Q78L/I80V/I100T/I112V/I113T/H123Q/R139H/K155N/T171V/D173N/A174T/N182G/R198M/F203L/N204S/T206K/T210A/A211G/K214E/T217I/V221A/R224N/S228P/I230T/A239V/INS244IISP/L245P/N246D/T247S/R250L/E253A/A261S/P266S/A267P/F272R/V273I/T276I/F277P/S280H/E283V/P287A/N288K/V291P): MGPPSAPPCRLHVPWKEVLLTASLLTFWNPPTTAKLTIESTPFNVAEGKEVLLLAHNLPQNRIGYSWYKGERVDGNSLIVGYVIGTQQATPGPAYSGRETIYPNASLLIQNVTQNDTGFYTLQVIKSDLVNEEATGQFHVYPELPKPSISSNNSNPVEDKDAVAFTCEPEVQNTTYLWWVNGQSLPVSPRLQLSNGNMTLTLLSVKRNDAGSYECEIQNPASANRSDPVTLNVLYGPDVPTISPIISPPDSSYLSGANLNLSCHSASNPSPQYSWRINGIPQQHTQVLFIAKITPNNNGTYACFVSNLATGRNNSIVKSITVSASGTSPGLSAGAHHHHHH

T3: CEA (Homo sapiens, UniProt P06731)
T3 construct: 6xHis (C)
T3 sequence (P06731 with tags, fused parts or gaps limits assumed): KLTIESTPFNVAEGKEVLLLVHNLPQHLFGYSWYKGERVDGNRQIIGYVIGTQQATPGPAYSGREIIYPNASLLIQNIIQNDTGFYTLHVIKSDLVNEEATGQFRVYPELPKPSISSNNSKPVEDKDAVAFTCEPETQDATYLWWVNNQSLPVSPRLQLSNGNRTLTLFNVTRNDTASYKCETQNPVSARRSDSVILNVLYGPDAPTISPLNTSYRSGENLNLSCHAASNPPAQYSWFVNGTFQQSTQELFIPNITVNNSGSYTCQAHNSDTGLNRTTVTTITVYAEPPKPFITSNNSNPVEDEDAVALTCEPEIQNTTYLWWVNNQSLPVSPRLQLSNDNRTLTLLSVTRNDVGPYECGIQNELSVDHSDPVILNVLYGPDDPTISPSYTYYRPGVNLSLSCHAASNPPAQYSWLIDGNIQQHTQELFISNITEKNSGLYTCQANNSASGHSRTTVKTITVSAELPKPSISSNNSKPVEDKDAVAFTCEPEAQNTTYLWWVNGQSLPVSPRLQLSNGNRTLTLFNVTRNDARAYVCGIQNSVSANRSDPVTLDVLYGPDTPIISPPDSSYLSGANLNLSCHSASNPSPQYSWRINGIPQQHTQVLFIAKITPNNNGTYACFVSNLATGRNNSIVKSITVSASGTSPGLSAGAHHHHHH

B1: BGA7592-1F-ph-L (BGA3676): affinity matured clone of BGA7592-1F, "(SEQ ID NO:95)", "improved affinities to huCEA surface protein" (protein)
chain: DIQMTQSPSSLSASVGDRVTITCRASENQYGYLAWYQQKPGKVPKLLIYNFKNLVEGVPSRFSGSGSGTDFTLTISSLQPEDVATYYCQHHLGTPYTFGQGTKVEIK
modifications: Synthetic: BGA7592-1F-ph-L VL
B2: BGA7592-1F-ph-M (BGA2433): affinity matured clone of BGA7592-1F, "(SEQ ID NO:96)", "improved affinities to huCEA surface protein"; template for further engineering (protein)
chain: B1 chain with F51T
modifications: Synthetic: BGA7592-1F-ph-M VL
notes: template for further engineering
B3: L92E: BGA6710 variant in IgG format, L92E in the light chain, "slightly reduces the binding affinity to CEA" (antibody, V domains shown)
VH: QVQLVQSGAEVKKPGASVKVSCKASGYIFTSYYLHWVRQAPGQGLEWIGYINPQTGYTSYAQKFQGRVTMTRDTSTSTVYMELSSLRSEDTAVYYCAREYGNYNYPLDYWGQGTLVTVSS
VL: B1 chain with F51Y, L92E

Columns and labels:
[1] = tested on: MKN45 cells; assay: Payload sensitivity of MKN45 cells; type: cell-based, human; details: Homo sapiens, MKN-45, MKN45, 6 days
Description: At Day 0, cells were harvested with 0.25% trypsin-EDTA, plated at 5,000 cells/well in 96-well plates (655090, Greiner), and incubated at 37° C., 5% CO2 overnight. At Day 1, payload compounds were added (5× dilution) into plates. Cell and compound mixtures were incubated at 37° C., 5% CO2 for 6 days. Survival cell signaling was collected at Day 6 with 100 μL of detection reagent (G7573, Promega®); signal was read by Tecan Spark®. Data were analyzed by GraphPad Prism 9.0.0. All killing concentrations were duplicated or triplicated (Table 21 and FIG. 16). “SABC” refers to specific antibody binding capacity.

[2] = target: T1, huCEA surface protein (LOVO cells); assay: Flow cytometry binding of affinity matured humanized BGA7592 variants to LOVO cells
Description: (§1) Affinity comparison of BGA7592-1F (BGA5366) and other affinity matured clones was made by SPR assay (Table 9) using BIAcore™ T-200 (GE Life Sciences) and flow cytometry (FIG. 7). For this experiment, anti-human IgG (Fc) antibody was immobilized on an activated CM5 biosensor chip (Cat. No. BR100839, GE Life Sciences). Anti-CEA antibodies were flowed over the chip surface and captured by anti-human Fab antibody. Then a serial dilution (1.37 nM to 333 nM) of CHIM was flowed over the chip surface and changes in surface plasmon resonance signals were analyzed to calculate the association rates (kon) and dissociation rates (koff) by using the one-to-one Langmuir binding model (BIA Evaluation Software, GE Life Sciences). For flow cytometry, CEA-expressing cells (10′ cells/well) were incubated with various concentrations of purified affinity-matured antibodies, followed by binding with Alexa Fluro-647-labeled anti-hu IgG Fc antibody (Cat. No. 409320, BioLegend, USA). Cell fluorescence was quantified using a flow cytometer (Guava easyCyte™ 8HT, Merck-Millipore, USA). The equilibrium dissociation constant (KD) was calculated as the ratio koff/kon.

[3] = target: T2, CHIM; assay: SPR affinity comparison of affinity matured humanized BGA7592 variants on CHIM; type: binding; details: Table 9, SPR on CHIM
Description: as §1

[4] = target: T2, CHIM; assay: as above; type: binding; details: Table 11, SPR to CHIM
[5] = target: T3, CEA; assay: SPR affinity measurement of BGA6710 variants; type: binding; details: BGA6710 variants in IgG format
Source text: To further improve the biochemical/biophysical properties, optimization of BGA6710 was made by introducing substitutions in CDR and framework regions (Table 13). The large, hydrophobic residues were chosen and changed to polar residues, except for K13 and Q53, which are selected based on observed differences among human VH germlines. The considerations include amino acid compositions, heat stability (Tm), surface hydrophobicity and isoelectronic points (pIs) while maintaining functional activities. The variants were expressed in Fab format by cloning into the vector pCANTAB-5E as described in Example 6. The Fab-containing supernatants were then screened by ELISA and SPR analysis for CEA binding.
Thus, the BGA6710 variants in IgG format with single identified mutation or combinations were expressed and purified as described in Example 8.

Molecule | affinities to huCEA surface protein [2] | Ka [3] | Rmax [3] | further results
CC[C@@]1(O)C(=O)OCc2c1cc1n(c2=O)Cc2c-1nc1cc(F)c(C)c3c1c2[C@@H](NC(=O)C(C)(C)CO)CC3 [P3, N-((1S,9S)-9-ethyl-5-fluoro-9-hydroxy-4-methyl-10,13-dioxo-2,3,9,10,13,15-hexahydro-1H,12H-benz′[d′]pyrano[3′,4′:6,7]indolizino[1,2-b]quinolin-1-yl)-3-hydroxy-2,2-dimethylpropanamide] | – | – | – | EC50 ([1]; read-out: EC50): 0.89 nM; Emax ([1]; read-out: Emax): 97%
B1 | improved affinities | 6700 M⁻¹ s⁻¹ | 184 RU | –
B2 | improved affinities | 2500 M⁻¹ s⁻¹ | 224 RU | Ka [4]: 19700 M⁻¹ s⁻¹; Rmax [4]: 97.2 RU
B3 | – | – | – | Kinetics (huCEA) ka [5]: 41700 M⁻¹ s⁻¹; Kinetics (huCEA) kd [5]: 0.000188 s⁻¹
